Test results as given in patent US20230002480A1.

How the values were obtained:
Test in all cases: cell-based or functional assay
[1] = biological target: HIV-1 Env of pseudovirus Du156.12 (HIV-1)
[2] = biological target: HIV-1 Env of pseudovirus ZM135M.PL10a (HIV-1)
[3] = biological target: HIV-1 Env of pseudovirus CNE20 (HIV-1)
[4] = biological target: HIV-1 Env of pseudovirus CAP45.2.00.G3 (HIV-1)
[5] = biological target: HIV-1 Env of pseudovirus 6535.3 (HIV-1)
[6] = biological target: HIV-1 Env of pseudovirus 1054_07_TC4_1499 (HIV-1)
[7] = biological target: HIV-1 Env of pseudovirus CAAN5342.A2 (HIV-1)
[8] = biological target: HIV-1 Env of pseudovirus 246F C1G (HIV-1)
[9] = biological target: HIV-1 Env of pseudovirus PVO.4 (HIV-1)
[10] = biological target: HIV-1 Env of pseudovirus T250-4 (HIV-1)
[11] = biological target: HIV-1 Env of pseudovirus 191955_A11 (HIV-1)
[12] = biological target: HIV-1 Env of pseudovirus CNE52 (HIV-1)
[13] = biological target: HIV-1 Env of pseudovirus WEAU_d15_410_787 (HIV-1)
[14] = biological target: HIV-1 Env of pseudovirus ZM233M.PB6 (HIV-1)
[15] = biological target: HIV-1 Env of pseudovirus HIV-0013095-2.11 (HIV-1)
[16] = biological target: HIV-1 Env of pseudovirus RHPA4259.7 (HIV-1)
[17] = biological target: HIV-1 Env of pseudovirus Q259.d2.17 (HIV-1)
[18] = biological target: HIV-1 Env of pseudovirus AC10.0.29 (HIV-1)
[19] = biological target: HIV-1 Env of pseudovirus Ce704809221_1B3 (HIV-1)
[20] = biological target: HIV-1 Env of pseudovirus 263-8 (HIV-1)
[21] = biological target: HIV-1 Env of pseudovirus MS208.A1 (HIV-1)
[22] = biological target: HIV-1 Env of pseudovirus ZM247v1(Rev-) (HIV-1)
[23] = biological target: HIV-1 Env of pseudovirus Ce703010054_2A2 (HIV-1)
[24] = biological target: HIV-1 Env of pseudovirus 928-28 (HIV-1)
[25] = biological target: HIV-1 Env of pseudovirus Q461.e2 (HIV-1)
[26] = biological target: HIV-1 Env of pseudovirus 6240_08_TA5_4622 (HIV-1)
[27] = biological target: HIV-1 Env of pseudovirus CNE53 (HIV-1)
[28] = biological target: HIV-1 Env of pseudovirus Ce1172_H1 (HIV-1)

## 10E8 (antibody)
[1]
  IC50, titer in TZM.bl cells: 0.034 µg/mL
  IC80, titer in TZM.bl cells: 0.144 µg/mL
[2]
  IC50, titer in TZM.bl cells: 0.171 µg/mL
  IC80, titer in TZM.bl cells: 1.19 µg/mL
[3]
  IC50, titer in TZM.bl cells: 1.25 µg/mL
  IC80, titer in TZM.bl cells: 6.58 µg/mL
[4]
  IC50, titer in TZM.bl cells: 1.82 µg/mL
  IC80, titer in TZM.bl cells: > 10 µg/mL
[5]
  IC50, titer in TZM.bl cells: 0.081 µg/mL
  IC80, titer in TZM.bl cells: 1.32 µg/mL
[6]
  IC50, titer in TZM.bl cells: 0.046 µg/mL
  IC80, titer in TZM.bl cells: 0.305 µg/mL
[7]
  IC50, titer in TZM.bl cells: 1.28 µg/mL
  IC80, titer in TZM.bl cells: 9.28 µg/mL
[8]
  IC50, titer in TZM.bl cells: 2.22 µg/mL
  IC80, titer in TZM.bl cells: 9.94 µg/mL
[9]
  IC50, titer in TZM.bl cells: 0.747 µg/mL
  IC80, titer in TZM.bl cells: > 10 µg/mL
[10]
  IC50, titer in TZM.bl cells: 1.35 µg/mL
  IC80, titer in TZM.bl cells: 8.13 µg/mL
[11]
  IC50, titer in TZM.bl cells: 0.68 µg/mL
  IC80, titer in TZM.bl cells: 3.53 µg/mL
[12]
  IC50, titer in TZM.bl cells: 0.304 µg/mL
  IC80, titer in TZM.bl cells: 3.06 µg/mL
[13]
  IC50, titer in TZM.bl cells: > 10 µg/mL
  IC80, titer in TZM.bl cells: > 10 µg/mL
[14]
  IC50, titer in TZM.bl cells: 0.442 µg/mL
  IC80, titer in TZM.bl cells: 2.39 µg/mL
[15]
  IC50, titer in TZM.bl cells: 0.031 µg/mL
  IC80, titer in TZM.bl cells: 0.213 µg/mL
[16]
  IC50, titer in TZM.bl cells: 0.728 µg/mL
  IC80, titer in TZM.bl cells: 5.28 µg/mL
[17]
  IC50, titer in TZM.bl cells: 4.59 µg/mL
  IC80, titer in TZM.bl cells: > 10 µg/mL
[18]
  IC50, titer in TZM.bl cells: 0.132 µg/mL
  IC80, titer in TZM.bl cells: 1.53 µg/mL
[19]
  IC50, titer in TZM.bl cells: 0.058 µg/mL
  IC80, titer in TZM.bl cells: 0.319 µg/mL
[20]
  IC50, titer in TZM.bl cells: 0.196 µg/mL
  IC80, titer in TZM.bl cells: 1.73 µg/mL
[21]
  IC50, titer in TZM.bl cells: 0.609 µg/mL
  IC80, titer in TZM.bl cells: 3.72 µg/mL
[22]
  IC50, titer in TZM.bl cells: 0.506 µg/mL
  IC80, titer in TZM.bl cells: 6.75 µg/mL
[23]
  IC50, titer in TZM.bl cells: 2.3 µg/mL
  IC80, titer in TZM.bl cells: 8.58 µg/mL
[24]
  IC50, titer in TZM.bl cells: 0.384 µg/mL
  IC80, titer in TZM.bl cells: 1.96 µg/mL
[25]
  IC50, titer in TZM.bl cells: 2.11 µg/mL
  IC80, titer in TZM.bl cells: > 10 µg/mL
[26]
  IC50, titer in TZM.bl cells: 0.756 µg/mL
  IC80, titer in TZM.bl cells: 5.59 µg/mL
[27]
  IC50, titer in TZM.bl cells: 0.326 µg/mL
  IC80, titer in TZM.bl cells: 1.92 µg/mL
[28]
  IC50, titer in TZM.bl cells: 0.722 µg/mL
  IC80, titer in TZM.bl cells: 4.82 µg/mL
